Values of other authors, collected in article PMC9453958.

Target: His64 (UniProt position 63, ILNNGHAFNVE)
Test: kinetics
Conditions: wild-type zinc enzyme during catalysis

Carbonic anhydrase II (HCA II) (Homo sapiens)
pKa: 7.2 ± 0.1
